Results reported in the supplement of paper PMC7877785.
± gives the uncertainty stated by the source.

Assay: self-splicing fitness, log relative to wild type (ln ratio); higher = more splicing; Tetrahymena group I intron in knt gene, E. coli kanamycin selection, DiMSum; sequences stand for … in CUCUCU…GGAGGGAAAAGUUAUCAGGCAUGCACCUGGUAGCUAGUCUUUAAACCAAUAGAUUGCAUCGGUUUAAAAGGCAAGACCGUCAAAUUGCGGGAAAGGGGUCAACAGCCGUUCAGUACCAAGUCUCAGGGGAAACUUUGAGAUGGCCUUGCAAAGGGUAUGGUAAUAAGCUGACGGACAUGGUCCUAACCACGCAGCCAAGUCCUAAGUCAACAGAUCUUCUGUUGAUAUGGAUGCAGUUCACAGACUAAAUGUCGGUCGGGGAAGAUGUAUUCUUCUCAUAAGAUAUAGUCGGACCUCUCCUUAAUGGGAGCUAGCGGAUGAAGUGAUGCAACACUGGAGCCGCUGGGAACUAAUUUGUAUGCGAAAGUAUAUUGAUUAGUUUUGGAGUACUCGUGGUCG
Method in brief: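 Library with all eight P1ex-region intron nucleotides randomised, intron inside the knt kanamycin-resistance gene on pET-22b(+), in E. coli BL21(DE3). Cells grew overnight at 37°C or 30°C on LB agar with or without 25 μg/mL kanamycin (plus 100 μg/mL carbenicillin, 50 μM IPTG, 0.2% rhamnose), in six replicate transformations. Pooled colonies were amplicon-sequenced on Illumina HiSeq 2500. DiMSum fitness is the error-weighted combination of wild-type-normalised replicate fold changes, kanamycin versus none.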

| Sequence | self-splicing fitness (ln) (30 °C) | self-splicing fitness (ln) (37 °C) |
| --- | --- | --- |
| UAGCAGCAAUAUUACGUCAU | -3.68 ± 0.17 | -1.52 ± 0.13 |
| UAGCAGCAAUAUUACGUGAA | -1.71 ± 0.16 | -0.671 ± 0.18 |
| UAGCAGCAAUAUUACGUGAU | -3.42 ± 0.13 | -1.09 ± 0.11 |
| UAGCAGCAAUAUUACGUGUA | -1.17 ± 0.062 | -0.62 ± 0.077 |
| UAGCAGCAAUAUUACGUGUG | -1.63 ± 0.064 | -0.7 ± 0.08 |
| UAGCAGCAAUAUUACGUGUU | -3.4 ± 0.1 | -2.86 ± 0.15 |
| UAGCAGCAAUAUUACGUUCG | -0.326 ± 0.069 | 0.165 ± 0.091 |
| UAGGAGCAAUAUUACGACUA | -0.46 ± 0.13 | -1.53 ± 0.15 |
| UAGGAGCAAUAUUACGAGUC | -3.68 ± 0.33 | -2.78 ± 0.3 |
| UAGGAGCAAUAUUACGAUCU | -3.09 ± 0.4 | – |
| UAGGAGCAAUAUUACGAUGC | -1.78 ± 0.23 | -1.01 ± 0.17 |
| UAGGAGCAAUAUUACGAUGU | – | -1.79 ± 0.4 |
| UAGGAGCAAUAUUACGCCCG | -1.53 ± 0.19 | -0.352 ± 0.17 |
| UAGGAGCAAUAUUACGGAAG | -2.94 ± 0.18 | -1.51 ± 0.26 |
| UAGGAGCAAUAUUACGGAUA | -2.09 ± 0.29 | -1.46 ± 0.23 |
| UAGGAGCAAUAUUACGGAUC | -3.44 ± 0.41 | -0.998 ± 0.39 |
| UAGGAGCAAUAUUACGGCAC | -2.4 ± 0.15 | -2.53 ± 0.26 |
| UAGGAGCAAUAUUACGGCCA | -2.27 ± 0.21 | -1.7 ± 0.27 |
| UAGGAGCAAUAUUACGGCUA | -0.122 ± 0.11 | 0.147 ± 0.11 |
| UAGGAGCAAUAUUACGGUAA | -3.41 ± 0.34 | -2.26 ± 0.31 |
| UAGGAGCAAUAUUACGUAAU | -3.15 ± 0.34 | – |
| UAGGAGCAAUAUUACGUACU | -2.72 ± 0.31 | -1.73 ± 0.32 |

| Sequence | self-splicing fitness (ln) (30 °C) | self-splicing fitness (ln) (37 °C) |
| --- | --- | --- |
| UAGGAGCAAUAUUACGUAUA | -2.34 ± 0.21 | -0.936 ± 0.17 |
| UAGGAGCAAUAUUACGUCAC | -3.99 ± 0.16 | -3.35 ± 0.21 |
| UAGGAGCAAUAUUACGUCAG | -4.59 ± 0.42 | -1.7 ± 0.26 |
| UAGGAGCAAUAUUACGUCCU | -1.63 ± 0.18 | -2.25 ± 0.26 |
| UAGGAGCAAUAUUACGUCUA | -0.313 ± 0.11 | 0.198 ± 0.13 |
| UAGGAGCAAUAUUACGUCUU | -3.16 ± 0.34 | -0.955 ± 0.23 |
| UAGGAGCAAUAUUACGUUUC | -2.55 ± 0.29 | -2.68 ± 0.44 |
| UAGGAGCAAUAUUACGUUUU | -1.88 ± 0.23 | -1.89 ± 0.27 |
| UAGUAGCAAUAUUACGAACC | – | -2.97 ± 0.33 |
| UAGUAGCAAUAUUACGAAGC | – | -1.73 ± 0.45 |
| UAGUAGCAAUAUUACGACUC | -0.329 ± 0.16 | 0.405 ± 0.19 |
| UAGUAGCAAUAUUACGACUU | 0.654 ± 0.13 | -0.285 ± 0.14 |
| UAGUAGCAAUAUUACGAGGG | -3.04 ± 0.42 | -2.03 ± 0.36 |
| UAGUAGCAAUAUUACGCAGG | -2.8 ± 0.22 | -1.74 ± 0.23 |
| UAGUAGCAAUAUUACGCCUA | -0.556 ± 0.14 | -0.575 ± 0.14 |
| UAGUAGCAAUAUUACGCGUA | -1.53 ± 0.25 | -1.94 ± 0.17 |
| UAGUAGCAAUAUUACGCUAC | -2.41 ± 0.42 | – |
| UAGUAGCAAUAUUACGCUCU | -1.71 ± 0.16 | -0.589 ± 0.17 |
| UAGUAGCAAUAUUACGGCCG | 0.0089 ± 0.17 | -0.367 ± 0.23 |
| UAGUAGCAAUAUUACGGCUG | -0.344 ± 0.061 | -0.0985 ± 0.096 |
| UAGUAGCAAUAUUACGUCCU | -2.53 ± 0.21 | -0.272 ± 0.15 |
| UAGUAGCAAUAUUACGUGCU | -1.79 ± 0.11 | -0.826 ± 0.12 |
